Patent publication US20230416365A1 (Hoffmann-La Roche, published 2023)

Assays:
[1] = target: T1, human FAP on 3T3-huFAP cells (clone 19) (human, UniProt Q12884 1-760); assay: flow cytometry on 3T3-huFAP cells, median fluorescence intensity
[2] = target: T1, human FAP on 3T3-huFAP cells (clone 19); assay: flow cytometry on 3T3-huFAP cells, median fluorescence intensity (axis MFI APC)
[3] = target: T1, human FAP on 3T3-huFAP cells (clone 19); assay: flow cytometry on 3T3-huFAP cells, PE anti-human secondary antibody, median fluorescence intensity
[4] = target: T2, recombinant CD79b-His (Sinobiological #29750-H08H) (UniProt P40259 29-159); assay: SPR, Biacore T200, CD79b-His captured by anti-penta-His on CM5, bispecific as analyte
T2 construct: bought; whole entry named, limits unknown; also called soluble recombinant CD79b-His
T2 sequence (looked up): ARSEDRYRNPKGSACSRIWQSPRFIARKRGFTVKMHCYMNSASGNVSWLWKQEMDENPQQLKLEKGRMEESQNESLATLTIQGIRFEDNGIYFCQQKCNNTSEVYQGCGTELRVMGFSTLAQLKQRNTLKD

B1: FAP-CD28 1+4 (bispecific antibody, human IgG1, kappa, L234A L235A)
CD28(SA) light chain: not shown
heavy chain CD28(SA) VHCH-VHCH - Fc knob - FAP(4B9) VH: not shown
heavy chain CD28(SA) VHCH-VHCH - Fc hole - FAP(4B9) VL: QVQLVQSGAEVKKPGASVKVSCKASGYTFTSYYIHWVRQAPGQGLEWIGCIYPGNVNTNYNEKFKDRATLTVDTSISTAYMELSRLRSDDTAVYFCTRSHYGLDWNFDVWGQGTTVTVSSASTKGPSVFPLAPSSKSTSGGTAALGCLVKDYFPEPVTVSWNSGALTSGVHTFPAVLQSSGLYSLSSVVTVPSSSLGTQTYICNVNHKPSNTKVDKKVEPKSCDGGGGSGGGGSQVQLVQSGAEVKKPGASVKVSCKASGYTFTSYYIHWVRQAPGQGLEWIGCIYPGNVNTNYNEKFKDRATLTVDTSISTAYMELSRLRSDDTAVYFCTRSHYGLDWNFDVWGQGTTVTVSSASTKGPSVFPLAPSSKSTSGGTAALGCLVKDYFPEPVTVSWNSGALTSGVHTFPAVLQSSGLYSLSSVVTVPSSSLGTQTYICNVNHKPSNTKVDKKVEPKSCDKTHTCPPCPAPEAAGGPSVFLFPPKPKDTLMISRTPEVTCVVVDVSHEDPEVKFNWYVDGVEVHNAKTKPREEQYNSTYRVVSVLTVLHQDWLNGKEYKCKVSNKALGAPIEKTISKAKGQPREPQVCTLPPSRDELTKNQVSLSCAVKGFYPSDIAVEWESNGQPENNYKTTPPVLDSDGSFFLVSKLTVDKSRWQQGNVFSCSVMHEALHNHYTQKSLSLSPGGGGGSGGGGSGGGGSGGGGSEIVLTQSPGTLSLSPGERATLSCRASQSVTSSYLAWYQQKPGQAPRLLINVGSRRATGIPDRFSGSGSGTDFTLTISRLEPEDFAVYYCQQGIMLPPTFGQGTKVEIK
notes: tetravalent for CD28, monovalent for FAP; also called Molecule D; FAP(4B9)-CD28(SA) 1+4
binding result [1]: binds

B2: FAP-CD28 H2T (P1AE2021) (bispecific antibody, human IgG1, kappa, L234A L235A)
heavy chain CD28(SA) VLCH1 - FAP(4B9) VHCH1 EE - Fc knob PGLALA: not shown
CD28(SA) VHCL: QVQLVQSGAEVKKPGASVKVSCKASGYTFTSYYIHWVRQAPGQGLEWIGCIYPGNVNTNYNEKFKDRATLTVDTSISTAYMELSRLRSDDTAVYFCTRSHYGLDWNFDVWGQGTTVTVSSASVAAPSVFIFPPSDEQLKSGTASVVCLLNNFYPREAKVQWKVDNALQSGNSQESVTEQDSKDSTYSLSSTLTLSKADYEKHKVYACEVTHQGLSSPVTKSFNRGEC
FAP(4B9) VLCL RK: EIVLTQSPGTLSLSPGERATLSCRASQSVTSSYLAWYQQKPGQAPRLLINVGSRRATGIPDRFSGSGSGTDFTLTISRLEPEDFAVYYCQQGIMLPPTFGQGTKVEIKRTVAAPSVFIFPPSDRKLKSGTASVVCLLNNFYPREAKVQWKVDNALQSGNSQESVTEQDSKDSTYSLSSTLTLSKADYEKHKVYACEVTHQGLSSPVTKSFNRGEC
Fc hole PGLALA: DKTHTCPPCPAPEAAGGPSVFLFPPKPKDTLMISRTPEVTCVVVDVSHEDPEVKFNWYVDGVEVHNAKTKPREEQYNSTYRVVSVLTVLHQDWLNGKEYKCKVSNKALGAPIEKTISKAKGQPREPQVCTLPPSRDELTKNQVSLSCAVKGFYPSDIAVEWESNGQPENNYKTTPPVLDSDGSFFLVSKLTVDKSRWQQGNVFSCSVMHEALHNHYTQKSLSLSP
notes: head-to-tail 1+1 format; also called Molecule H; FAP(4B9)-CD28(SA) C-01
EC50 (read off the curve) [2]: ~1 nM

B3: FAP-CD28SA 2+2 (P1AD4493) (bispecific antibody, human IgG1, kappa, L234A L235A)
CD28(SA) light chain VL-CL RK: not shown
heavy chain CD28(SA) VHCH1 EE - Fc PGLALA - FAP(4B9) VHCL: not shown
FAP(4B9) VLCH1: EIVLTQSPGTLSLSPGERATLSCRASQSVTSSYLAWYQQKPGQAPRLLINVGSRRATGIPDRFSGSGSGTDFTLTISRLEPEDFAVYYCQQGIMLPPTFGQGTKVEIKSSASTKGPSVFPLAPSSKSTSGGTAALGCLVKDYFPEPVTVSWNSGALTSGVHTFPAVLQSSGLYSLSSVVTVPSSSLGTQTYICNVNHKPSNTKVDKKVEPKSCD
notes: bivalent for CD28 and bivalent for FAP; copy numbers follow from the 2+2 format; also called Molecule F; FAP(4B9)-CD28(SA) 2+2
EC50 (read off the curve) [3]: ~2 nM | EC50 (read off the curve) [1]: ~2 nM

B4: CD79b (huMA79b.v28)-CD28 (SA_v15) 1+1 (Molecule F of Example 18; 18F) (bispecific antibody, human IgG1, kappa, L234A L235A)
heavy 1: not shown
light 1: not shown
heavy 2: DIQLTQSPSSLSASVGDRVTITCKASQSVDYEGDSFLNWYQQKPGKAPKLLIYAASNLESGVPSRFSGSGSGTDFTLTISSLQPEDFATYYCQQSNEDPLTFGQGTKVEIKSSASTKGPSVFPLAPSSKSTSGGTAALGCLVKDYFPEPVTVSWNSGALTSGVHTFPAVLQSSGLYSLSSVVTVPSSSLGTQTYICNVNHKPSNTKVDKKVEPKSCDKTHTCPPCPAPEAAGGPSVFLFPPKPKDTLMISRTPEVTCVVVDVSHEDPEVKFNWYVDGVEVHNAKTKPREEQYNSTYRVVSVLTVLHQDWLNGKEYKCKVSNKALGAPIEKTISKAKGQPREPQVCTLPPSRDELTKNQVSLSCAVKGFYPSDIAVEWESNGQPENNYKTTPPVLDSDGSFFLVSKLTVDKSRWQQGNVFSCSVMHEALHNHYTQKSLSLSP
light 2: EVQLVESGGGLVQPGGSLRLSCAASGYTFSSYWIEWVRQAPGKGLEWIGEILPGGGDTNYNEIFKGRATFSADTSKNTAYLQMNSLRAEDTAVYYCTRRVPIRLDYWGQGTLVTVSSASVAAPSVFIFPPSDEQLKSGTASVVCLLNNFYPREAKVQWKVDNALQSGNSQESVTEQDSKDSTYSLSSTLTLSKADYEKHKVYACEVTHQGLSSPVTKSFNRGEC
notes: huIgG1 PG-LALA CrossFab; also called P1AE9039; CD79b-CD28
Kd [4]: 76 nM | koff [4]: 0.0195 s⁻¹ | kon [4]: 257000 M⁻¹ s⁻¹

B5: FAP-CD28 CTF (P1AE2236) (bispecific antibody, human IgG1, kappa, L234A L235A)
CD28(SA) light chain: not shown
heavy chain CD28(SA) VHCH - Fc hole - FAP(4B9) VL: QVQLVQSGAEVKKPGASVKVSCKASGYTFTSYYIHWVRQAPGQGLEWIGCIYPGNVNTNYNEKFKDRATLTVDTSISTAYMELSRLRSDDTAVYFCTRSHYGLDWNFDVWGQGTTVTVSSASTKGPSVFPLAPSSKSTSGGTAALGCLVKDYFPEPVTVSWNSGALTSGVHTFPAVLQSSGLYSLSSVVTVPSSSLGTQTYICNVNHKPSNTKVDKKVEPKSCDKTHTCPPCPAPEAAGGPSVFLFPPKPKDTLMISRTPEVTCVVVDVSHEDPEVKFNWYVDGVEVHNAKTKPREEQYNSTYRVVSVLTVLHQDWLNGKEYKCKVSNKALGAPIEKTISKAKGQPREPQVCTLPPSRDELTKNQVSLSCAVKGFYPSDIAVEWESNGQPENNYKTTPPVLDSDGSFFLVSKLTVDKSRWQQGNVFSCSVMHEALHNHYTQKSLSLSPGGGGGSGGGGSGGGGSGGGGSEIVLTQSPGTLSLSPGERATLSCRASQSVTSSYLAWYQQKPGQAPRLLINVGSRRATGIPDRFSGSGSGTDFTLTISRLEPEDFAVYYCQQGIMLPPTFGQGTKVEIK
Fc knob - FAP(4B9) VH: not shown
notes: also called Molecule I; FAP(4B9)-CD28(SA) C-04
EC50 (read off the curve) [2]: ~2 nM

B6: FAP-CD28CA 1+2 (P1AD8962) (bispecific antibody)
CD28(mAb 9.3) light chain: DIELTQSPASLAVSLGQRATISCRASESVEYYVTSLMQWYQQKPGQPPKLLIFAASNVESGVPARFSGSGSGTNFSLNIHPVDEDDVAMYFCQQSRKVPYTFGGGTKLEIKRTVAAPSVFIFPPSDEQLKSGTASVVCLLNNFYPREAKVQWKVDNALQSGNSQESVTEQDSKDSTYSLSSTLTLSKADYEKHKVYACEVTHQGLSSPVTKSFNRGEC
heavy chain CD28(mAb 9.3) VHCH - Fc knob - FAP(4B9) VH: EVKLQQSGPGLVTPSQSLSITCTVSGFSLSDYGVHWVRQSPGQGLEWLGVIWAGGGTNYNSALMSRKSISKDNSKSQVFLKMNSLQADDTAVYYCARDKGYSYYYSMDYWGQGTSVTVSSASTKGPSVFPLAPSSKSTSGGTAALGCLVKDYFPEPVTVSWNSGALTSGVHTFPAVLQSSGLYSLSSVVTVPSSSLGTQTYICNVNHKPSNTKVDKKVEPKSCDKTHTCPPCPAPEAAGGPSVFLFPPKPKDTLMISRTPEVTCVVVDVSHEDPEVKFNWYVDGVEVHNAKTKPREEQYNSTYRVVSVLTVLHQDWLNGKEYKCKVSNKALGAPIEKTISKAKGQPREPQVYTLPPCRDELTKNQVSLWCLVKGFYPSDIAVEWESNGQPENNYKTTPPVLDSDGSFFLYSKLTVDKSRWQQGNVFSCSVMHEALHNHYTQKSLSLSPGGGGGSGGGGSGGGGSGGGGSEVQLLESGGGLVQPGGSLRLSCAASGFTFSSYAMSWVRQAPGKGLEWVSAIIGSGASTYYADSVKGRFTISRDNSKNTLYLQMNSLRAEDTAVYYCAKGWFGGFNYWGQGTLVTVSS
heavy chain CD28(mAb 9.3) VHCH - Fc hole - FAP(4B9) VL: EVKLQQSGPGLVTPSQSLSITCTVSGFSLSDYGVHWVRQSPGQGLEWLGVIWAGGGTNYNSALMSRKSISKDNSKSQVFLKMNSLQADDTAVYYCARDKGYSYYYSMDYWGQGTSVTVSSASTKGPSVFPLAPSSKSTSGGTAALGCLVKDYFPEPVTVSWNSGALTSGVHTFPAVLQSSGLYSLSSVVTVPSSSLGTQTYICNVNHKPSNTKVDKKVEPKSCDKTHTCPPCPAPEAAGGPSVFLFPPKPKDTLMISRTPEVTCVVVDVSHEDPEVKFNWYVDGVEVHNAKTKPREEQYNSTYRVVSVLTVLHQDWLNGKEYKCKVSNKALGAPIEKTISKAKGQPREPQVCTLPPSRDELTKNQVSLSCAVKGFYPSDIAVEWESNGQPENNYKTTPPVLDSDGSFFLVSKLTVDKSRWQQGNVFSCSVMHEALHNHYTQKSLSLSPGGGGGSGGGGSGGGGSGGGGSEIVLTQSPGTLSLSPGERATLSCRASQSVTSSYLAWYQQKPGQAPRLLINVGSRRATGIPDRFSGSGSGTDFTLTISRLEPEDFAVYYCQQGIMLPPTFGQGTKVEIK
notes: also called Molecule Q; FAP(4B9)-CD28(mAb9.3) 1+2
binding result [3]: binds

B7: FAP-CD28CA 2+2 (P1AD8968) (bispecific antibody)
heavy chain CD28(mAb 9.3) VHCH EE - Fc PGLALA - FAP(4B9) VHCL: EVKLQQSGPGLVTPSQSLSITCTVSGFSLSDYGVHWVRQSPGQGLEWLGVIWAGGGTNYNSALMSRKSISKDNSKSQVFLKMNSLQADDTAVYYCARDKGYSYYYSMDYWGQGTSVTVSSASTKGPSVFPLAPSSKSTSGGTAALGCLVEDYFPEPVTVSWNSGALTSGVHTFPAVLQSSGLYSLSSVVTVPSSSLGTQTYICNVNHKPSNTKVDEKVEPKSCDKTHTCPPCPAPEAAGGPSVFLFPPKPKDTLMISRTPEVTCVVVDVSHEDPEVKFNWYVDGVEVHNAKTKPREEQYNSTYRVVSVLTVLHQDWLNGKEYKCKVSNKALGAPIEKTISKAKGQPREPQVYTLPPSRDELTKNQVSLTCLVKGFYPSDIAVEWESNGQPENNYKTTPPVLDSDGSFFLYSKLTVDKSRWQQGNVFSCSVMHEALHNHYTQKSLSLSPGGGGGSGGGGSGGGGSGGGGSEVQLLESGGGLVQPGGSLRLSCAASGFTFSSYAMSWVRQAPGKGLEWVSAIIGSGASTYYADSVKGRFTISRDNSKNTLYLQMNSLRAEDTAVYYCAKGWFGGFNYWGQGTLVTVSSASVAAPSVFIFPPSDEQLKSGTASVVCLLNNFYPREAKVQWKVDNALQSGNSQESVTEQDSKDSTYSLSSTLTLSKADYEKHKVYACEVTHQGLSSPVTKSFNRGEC
CD28(mAb 9.3) light chain VLCL RK: DIELTQSPASLAVSLGQRATISCRASESVEYYVTSLMQWYQQKPGQPPKLLIFAASNVESGVPARFSGSGSGTNFSLNIHPVDEDDVAMYFCQQSRKVPYTFGGGTKLEIKRTVAAPSVFIFPPSDRKLKSGTASVVCLLNNFYPREAKVQWKVDNALQSGNSQESVTEQDSKDSTYSLSSTLTLSKADYEKHKVYACEVTHQGLSSPVTKSFNRGEC
FAP(4B9) VLCH1: EIVLTQSPGTLSLSPGERATLSCRASQSVTSSYLAWYQQKPGQAPRLLINVGSRRATGIPDRFSGSGSGTDFTLTISRLEPEDFAVYYCQQGIMLPPTFGQGTKVEIKSSASTKGPSVFPLAPSSKSTSGGTAALGCLVKDYFPEPVTVSWNSGALTSGVHTFPAVLQSSGLYSLSSVVTVPSSSLGTQTYICNVNHKPSNTKVDKKVEPKSC
notes: also called Molecule R; FAP(4B9)-CD28(mAb9.3) 2+2
EC50 (read off the curve) [3]: ~1 nM

B8: FAP(4B9)-CD28(SA) 1+1 format (Molecule C) (bispecific antibody, human IgG1, kappa, L234A L235A)
heavy 1: not shown
light 1: not shown
heavy 2: EIVLTQSPGTLSLSPGERATLSCRASQSVTSSYLAWYQQKPGQAPRLLINVGSRRATGIPDRFSGSGSGTDFTLTISRLEPEDFAVYYCQQGIMLPPTFGQGTKVEIKSSASTKGPSVFPLAPSSKSTSGGTAALGCLVKDYFPEPVTVSWNSGALTSGVHTFPAVLQSSGLYSLSSVVTVPSSSLGTQTYICNVNHKPSNTKVDKKVEPKSCDKTHTCPPCPAPEAAGGPSVFLFPPKPKDTLMISRTPEVTCVVVDVSHEDPEVKFNWYVDGVEVHNAKTKPREEQYNSTYRVVSVLTVLHQDWLNGKEYKCKVSNKALGAPIEKTISKAKGQPREPQVCTLPPSRDELTKNQVSLSCAVKGFYPSDIAVEWESNGQPENNYKTTPPVLDSDGSFFLVSKLTVDKSRWQQGNVFSCSVMHEALHNHYTQKSLSLSP
light 2: EVQLLESGGGLVQPGGSLRLSCAASGFTFSSYAMSWVRQAPGKGLEWVSAIIGSGASTYYADSVKGRFTISRDNSKNTLYLQMNSLRAEDTAVYYCAKGWFGGFNYWGQGTLVTVSSASVAAPSVFIFPPSDEQLKSGTASVVCLLNNFYPREAKVQWKVDNALQSGNSQESVTEQDSKDSTYSLSSTLTLSKADYEKHKVYACEVTHQGLSSPVTKSFNRGEC
notes: huIgG1 PG-LALA CrossFab, knob-into-hole; also called P1AD4492; parental
EC50 (read off the curve) [2]: ~1 nM
